B1: ZER1 (parent)
chain: KEMARKVIEHCSNFKEENMDTSR

Variants of: B1
Assay: protein stability index of a GFP-peptide fusion (GPS, HEK-293T) (PSI 1-6); higher = more stable
Settings: c terminus: native
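Also: lentivirally expressed fusions sorted by FACS into six bins by GFP to DsRed ratio, PSI derived from sequencing read proportions per bin multiplied by bin number.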

Protein stability index of substitutions, site by site:
F14: G 4.69 | E 4.78 | D 5.02 | N 4.73 | T 4.46 | L 4.03 | W 3.33 | R 4.55 | K 4.92 | P 4.26 | H 4.8 | C 3.91 | A 4.56 | M 4.4 | Q 4.73 | I 4.35 | V 4.94 | Y 3.56 | S 4.68
T21: N 4.48 | V 3.1 | K 1.68 | M 4.41 | W 2.3 | P 4.17 | S 4.65 | Y 2.13 | H 2.18 | R 1.65 | G 5.12 | E 4.98 | I 3.16 | C 3.39 | Q 3.84 | L 3.26 | D 5.16 | A 4.09 | F 3.84
H10: K 4.78 | G 4.56 | F 2.78 | C 3.1 | S 3.57 | A 3.49 | R 3.59 | N 4.29 | T 3.98 | W 2.15 | Q 3.83 | M 1.81 | P 5.17 | V 3.33 | L 1.76 | I 1.94 | Y 1.9 | D 4.06 | E 3.69
E16: W 2.16 | G 3.83 | I 2.45 | M 2.68 | Q 3.14 | A 2.9 | V 3.43 | D 3.07 | N 3.19 | S 4.19 | L 2.52 | K 3.85 | T 3.1 | P 3.31 | Y 2.37 | F 2.46 | C 3.17 | R 2.98 | H 2.79
N13: L 1.92 | A 3.28 | D 3.61 | P 3.32 | C 3.04 | Y 3.15 | S 3.33 | H 3.53 | T 3.68 | G 3.5 | K 3.85 | M 2.88 | R 3.11 | Q 3.07 | E 3.69 | V 3.05 | W 2.4 | F 2.49 | I 1.93
R5: S 3.81 | P 4.74 | E 4.72 | G 3.65 | V 3.14 | Q 3.26 | N 4.01 | M 3.13 | I 2.83 | H 3.72 | C 3.76 | Y 2.68 | W 1.94 | A 4.4 | T 3.58 | D 4.9 | K 4.15 | F 2.48 | L 2.74
K6: I 2.36 | P 4.47 | W 2.71 | T 2.74 | H 3.09 | G 4.21 | Q 3.73 | N 3.89 | M 2.14 | Y 1.7 | V 2.52 | F 1.72 | C 2.92 | E 4.5 | A 3.58 | S 2.96 | R 2.63 | L 1.52 | D 4.19
E9: W 1.55 | H 3.92 | M 2.96 | S 4.26 | A 4 | T 4.35 | R 4.01 | I 3.03 | F 2.13 | Q 4.08 | D 4.11 | N 4.29 | V 3.87 | K 4.37 | Y 3.16 | L 2.64 | G 4.29 | P 4.58 | C 4.04
A4: L 2.23 | T 3.94 | V 2.59 | R 4.15 | K 4.29 | S 4.13 | M 2.48 | N 4.21 | Y 2.89 | P 4.57 | Q 4.21
N18: D 3.52 | Q 3.6 | T 3.45 | C 3.3 | K 2.99 | G 4.02 | I 3.31 | P 3.9 | A 3.34 | E 4.22 | F 3.07 | L 2.91 | M 3.54 | H 3.47 | V 3.46 | Y 3.08 | W 3.6 | R 2 | S 3.7
M19: F 3.94 | N 4.29 | R 3.62 | T 3.92 | I 4.32 | H 3.77 | A 3.68 | Y 3.71 | D 4.46 | E 4.15 | P 3.58 | Q 3.87 | V 3.77 | G 3.37 | C 3.51 | W 3.64 | L 3.47 | K 2.81 | S 3.63
K15: C 3.93 | N 3.64 | V 3.9 | D 4.24 | F 3.17 | R 2.8 | I 3.5 | A 3.31 | M 3.54 | H 3.52 | Q 3.57 | T 4.15 | Y 3.27 | G 3.7 | P 4.08 | S 3.34 | W 2.85 | E 4.32 | L 3.13
E17: V 2.74 | R 2.21 | K 2.84 | M 3.51 | A 2.98 | Q 3.19 | P 2.93 | T 3.45 | N 3.55 | I 3.15 | Y 2.41 | W 2.2 | G 3.4 | H 2.83 | C 2.68 | F 2.79 | D 3.63 | S 3.29 | L 2.35
S12: P 4.37 | G 4.21 | R 3.25 | W 2.63 | T 3.59 | L 2.45 | Y 2.73 | I 2.56 | K 3.49 | H 3.66 | C 2.98 | V 2.96 | N 3.95 | F 2.77 | Q 3.55 | D 4.24 | E 3.85 | A 3.7 | M 2.54
V7: N 5.1 | K 4.88 | I 1.59 | C 4.55 | A 4.87 | F 3.83 | H 1.52 | L 1.92 | Q 4.87 | G 5.13 | M 2.44 | P 4.46 | W 3.19 | R 4.65 | E 5.27 | D 5.26 | T 4.89 | S 4.98 | Y 2.09
D20: A 1.63 | H 2.96 | R 2.13 | W 2.5 | Y 2.89 | E 2.51 | T 2.99 | K 2.29 | P 2.46 | M 1.91 | G 2.68 | V 1.51 | Q 2.23 | C 2.08 | I 1.52 | N 4.59 | S 2.46 | L 1.87 | F 2.98
I8: R 4.33 | M 3.51 | K 4.91 | P 4.7 | C 4.42 | Y 3.88 | F 3.2 | H 4.29 | T 4.4 | W 1.86 | S 3.92 | G 4.64 | L 3.13 | Q 4.67 | N 4.98 | D 5.19 | A 4.58 | E 4.87 | V 4.35
C11: Y 2.11 | A 4.77 | G 4.63 | H 3.87 | W 2.19 | K 4.94 | E 4.45 | M 2.58 | S 3.96 | R 4.48 | N 4.26 | L 2.59 | I 2.02 | Q 4.43 | T 4.62 | F 1.38 | P 4.83 | V 2.84 | D 4.79

— the supplement of paper PMC10567573
